In US20240043507A1 (RQ BIOTECHNOLOGY, published 2024):
Positions count from the first letter of the chain named.

B1: antibody 222 (antibody, V domains shown)
VH: EVQLVESGGGLIQPGGSLRLSCAASGLTVSSNYMSWVRQAPGKGLEWVSVIYSGGSTFYADSVKGRFTISRDNSKNTLYLQMNSLGAEDTAVYYCARGEGSPGNWFDPWGQGTLVTVSS
VL: DVVMTQSPGTLSLSPGERATLSCRASQSVPSSYLAWYQQKPGQAPRLLIYGASTRATGIPDRFSGSGSGTDFTLTISRLEPEDFAVYYCQHYDTSPRFGGGTKVDIK
B2: antibody 158 (antibody, V domains shown)
VH: EVQLLESGGDLIQPGGSLRLSCAASGVTVSSNYMSWVRQAPGKGLEWVSIIYPGGSTFYADSVKGRFTISRDNSKNTLYLQMHSLRAEDTAVYYCARDLGSGDMDVWGKGTTVTVSS
VL: DIVMTQSPSFLSASVGDRVTITCRASQGISSYLAWYQQKPGKAPKLLIQAASTLQSGVPSRFSGSGSGTEFTLTISSLQPEDFATYYCQQLNSYRYTFGQGTKVEIK
B3: antibody 318 (antibody, V domains shown)
VH: QVQLVQSGPEVKKPGTSVKVSCKASGFTLTSSAMQWVRQARGQRLEWIGWIVVGSGNTNYAQKFQERVTITRDMSTSTAYMELSSLRSEDTAVYYCAAGRGYNSDFDYWGQGTLVTVSS
VL: AIRMTQSPGTLSLSPGERATLSCRASQSVSSSYLAWYQQRPGQAPRLLIYGTSSRATGIPDRFSGSGSGTDFTLTISRLEPEDFAVYYCQQYGYSVYTFGQGTKVDIK
B4: antibody 58 (antibody, V domains shown)
VH: QVQLVESGGGLVQPGRSLRLSCAASGFTFDDYAMHWVRQPPGKGLEWVSGVSWNSGTIGYADSVKGRFIISRDNAKNSLYLQMNSLKAEDTALYYCAREVGGTFGVLISREGGLDYWGQGTLVTVSS
VL: SYELTQPPSVSVAPGQTARITCGGNTIGSKSVHWYQQRPGQAPVLVVYDDSDRPSGIPERFSGSNSGNTATLTISRVEAGDEADYYCQVWDSSSDRVVFGGGTKLTVL
B5: antibody 88 (antibody, V domains shown)
VH: QLQLQESGPGLVKPSQTLSLTCTVSGGSISSGSYNWTWIRQPAGKGLEWIGRIYNSGSTNYNPSLKSRVTISVDTSKNQLSLKVRSVTAADTAVYYCARHCSGGTCYPKYYYGMDVWGQGTTVTVSS
VL: QSALTQPPSVSEAPRQRVTISCSGSSSNIGNNAVNWYQQFPGKAPKLLIYYDDLLPSGVSDRFSGSKSGTSASLAISGVQSEDEADYYCAAWDDSLNVVVFGGGTKLTVL
B6: antibody 132 (antibody, V domains shown)
VH: QVQLQQWGAGLLKPSETLSLTCAVYGGSFSGYYWSWIRQPPGKGLEWIGEINHSGSTNYNPSLKSRVTISVDTSKNQFSLKLSSVTAADTAVYYCARTDYYDSIDWGQGTLVTVSS
VL: QSVLTQEPSLTVSPGGTVTLTCGSSTGAVTSGHYPYWFQQKPGQVPRTLIYDTRNKHSWTPARFSGSLLGGKAALTLSGAQPEDEAEYYCLLSSSGARVFGGGTKLTVL
B7: antibody 278 (antibody, V domains shown)
VH: QVQLVQSGAEVKKPGASVKVSCKASGYIFIRYGISWVRQAPGQGLEWMGWISANNGYTNYAQKLQGRVTMTTDTSTSTAYMELRSLRSDDTAVYYCARDGGILTGYLDYFDHWGQGTLVTVSS
VL: DIQMTQSPSSLSASVGDRLTITCRASQSIASYLNWYQQKPGKAPKLLIYAASSLQSGVPSRFSGSGSGTDFTLTISSLQPEDFATYHCQQSYSTLGITFGPGTKVDIK
B8: antibody 281 (antibody, V domains shown)
VH: QVQLVESGGGLVQPGGSLRLSCAASGFPFSIYWMSWVRQAPGKGLEWVANIKQDGSEKYYVDSVKGRFTISRDNAKNSLYLHMNSLRGEDTAVYYCASRYYDFRPEAWFDYWGQGTLVTVSS
VL: not shown
B9: antibody 316 (antibody, V domains shown)
VH: not shown
VL: QAVLTQPPSASGSPGQSVTISCTGTSSDVGGYNYVSWYQQHPGKAPKLMIYEVSKRPSGVPDRFSGSKSGNTASLTVSGLQAEDEADYYCSSYAGSNHWVFGGGTKLTVL
B10: antibody 398 (antibody, V domains shown)
VH: QVQLVESGGGLVQPGGSLRLSCAASGFTVSSNYMTWVRQAPGKGLEWVSVIYSGGSTYYADSVKGRFTISRDNSKNTLYLQMNSLRADDTAVYYCARDSTADYDFWSGYYVGAFHIWGQGTMVTVSS
VL: B9 VL with A2T, P8A, A10V, V18I, S54T, H98N
B11: antibody 170 (antibody, V domains shown)
VH: QVQLVESGAEVKKPGESLKISCKGSGYSFTSYWIVWVRQMPGKGLEWMGIIYPGDSDTKYSPSFQGQVSISADKPISTAYLQWSRLKASDTAMYYCARLGNWLVDYWGQGTLVTVSS
VL: DIVMTQSPLSLSVTPGQPASISCKSSQSLLHSDGKTYLYWYLQKPGQPPQLLMYEVSNRFSGVPDRFSGSGSGTDFTLKISRVESEDVGVYYCMQSIQLPRGITFGQGTRLEIK
B12: antibody 150 (antibody, V domains shown)
VH: QVQLVESGGGLIQPGGSLRLSCAASGVTVSSNYMSWVRQAPGKGLEWVSIIYSGGTTYYADSVKGRFTISRDSSMNTLYLQMNSLRAEDTAVYYCARDLMVYGIDVWGQGTTVTVSS
VL: EIVMTQSPSSLSASVGDRVTITCRASQGISSYLAWYQQKPGKAPKLLIYAASTLQSGVPSRFSGSGSGTDFTLTISSLQPEDFATYYCQQLDSYPPGYTFGQGTKVDIK
B13: antibody 40 (antibody, V domains shown)
VH: QVQLVESGGGLVQPGGSLRLSCAVSGFTVSRNYMSWVRQAPGKGLEWVSLIYSGGSTFYADSVKGRFTISRDNSKNTLYLQMNSLRAEDTAVYYCARDLFHRSGYHDYWGQGTLVTVSS
VL: not shown
B14: antibody 253H165L (antibody, V domains shown)
VH: not shown
VL: DIVMTQSPGTLSLSPGERATLSCRASQSVRSSYLAWYQQKPGQAPRLLIYGASRRGTGIPDRFSGSGSGTDFTLTISRLEPEDFAVYYCQQYGSSPWTFGQGTKVEIK
B15: antibody 165 (antibody, V domains shown)
VH: QVQLVQSGPEVKKPGTSVKVSCKASGFTFTSSAVQWVRQARGQRLEWIGWIVVGSGNTNYAQKFQESVTITRDMSTSTAYMELSSLRSEDTAVYYCAAPHCIGGSCHDAFDIWGQGTMVTVSS
VL: B14 VL
B16: antibody 175 (antibody, V domains shown)
VH: EVQLVESGGGLIQPGGSLRLSCAASGLTVSRNYMSWVRQAPGKGLEWVSLIYSGGSTYYADSVKGRFTISRDNSKNTLYLQMNSLRAEDTAVYYCARDLRGEVWGQGTMVTVSS
VL: not shown
B17: antibody 269 (antibody, V domains shown)
VH: QVQLVESGGGLIQPGGSLRLSCAASGLTVNRNYMSWIRQAPGKGLEWVSVIYSGGSTFYADSVKGRFTISRDNSKNTLSLQMNSLRAEDTAIYYCARDFYEGSFDIWGQGTMVTVSS
VL: AIQLTQSPSFLSASIGDRVTITCRASQGISSYLAWYQQKPGKAPKLLIYAASTLQSGVPSRFSGSGSGTEFTLTISSLQPEDFASYYCQQLNSYPAPVFGPGTKVDIK
B18: antibody 384 (antibody, V domains shown)
VH: EVQLVESGGGLVKPGESLRLSCAASGFTFSDYYMTWIRQAPGKGLEWVSYIRSSGHTIYYADSVKGRFTISRDNAKNSLYLQMNSLRVEDTAVYYCARGGVLRFLEWPLNAFDIWGQGTMVTVSS
VL: DIQLTQSPSSLSASVGDRVTITCRASQGISNYLAWYQQKPGKVPKLLIYAASTLQSGVPSRFSGSGSGTDFTLTISSLQPEDVATYYCQKYNNALGTFGQGTKVEIK
B19: antibody 40 (antibody, V domains shown)
VH: B13 VH
VL: not shown
notes: also called mAb 40
B20: antibody 384 (antibody, V domains shown)
VH: B18 VH
VL: B18 VL

Target: spike protein of SARS-CoV-2 strain Victoria (SARS-CoV-2/human/AUS/VIC01/2020) (SARS-CoV-2, UniProt P0DTC2 14-1273)
Assay: cell-based or functional assay

Binder | IC50 (FRNT, live virus neutralisation)
B1 | 0.019 µg/mL
B2 | 0.031 µg/mL
B3 | 0.029 µg/mL
B4 | 0.041 µg/mL
B5 | 0.033 µg/mL
B6 | 0.048 µg/mL
B7 | 0.014 µg/mL
B8 | 0.005 µg/mL
B9 | 0.018 µg/mL
B10 | 0.091 µg/mL
B11 | 0.025 µg/mL
B12 | 0.012 µg/mL
B13 | 0.026 µg/mL
B14 | 0.003 µg/mL
B15 | 0.034 µg/mL
B16 | 0.026 µg/mL
B17 | 0.03 µg/mL

Target: spike protein of SARS-CoV-2 strain B.1.351 (SARS-CoV-2, UniProt P0DTC2 14-1273)
Assay: cell-based or functional assay

Binder | IC50 (FRNT, live virus neutralisation) | B.1.351/Victoria ratio (IC50)
B1 | 0.017 µg/mL | –
B2 | > 10 µg/mL | –
B3 | 0.019 µg/mL | –
B4 | 0.136 µg/mL | –
B5 | > 10 µg/mL | –
B6 | > 10 µg/mL | –
B7 | 0.16 µg/mL | –
B8 | > 10 µg/mL | –
B9 | > 10 µg/mL | –
B10 | > 10 µg/mL | –
B18 | > 10 µg/mL | –
B11 | > 10 µg/mL | –
B12 | 0.35 µg/mL | 30
B13 | 0.738 µg/mL | –
B14 | 0.013 µg/mL | –
B15 | 0.054 µg/mL | –
B16 | > 10 µg/mL | –
B17 | > 10 µg/mL | –

Target: spike protein of SARS-CoV-2 strain Victoria (SARS-CoV-2/human/AUS/VIC01/2020) (SARS-CoV-2, UniProt P0DTC2 14-1273)
Assay: cell-based or functional assay
Remark: another data set of the same source

Binder | IC50 (FRNT neutralisation)
B19 | 0.026 µg/mL

Target: spike protein of SARS-CoV-2 strain B.1.1.7 (SARS-CoV-2, UniProt P0DTC2 14-1273)
Assay: cell-based or functional assay

Binder | IC50 (FRNT neutralisation)
B20 | 0.005 µg/mL
B19 | 0.035 µg/mL

Target: spike protein of SARS-CoV-2 strain B.1.351 (SARS-CoV-2, UniProt P0DTC2 14-1273)
Assay: cell-based or functional assay
Remark: another data set of the same source

Binder | IC50 (FRNT neutralisation)
B20 | > 10 µg/mL
B19 | 0.738 µg/mL

Target: spike protein of SARS-CoV-2 strain P.1 (SARS-CoV-2, UniProt P0DTC2 14-1273)
Assay: cell-based or functional assay

Binder | IC50 (FRNT neutralisation)
B20 | > 10 µg/mL
B19 | 0.153 µg/mL
